B1: FAM164C (parent)
chain: YPHCTGISQQDPESDSQGQGNGLF
B2: C2CD2L (parent)
chain: EPAGSLRELGVWRSLLRLRATRAG

Variants of: B1
Assay: protein stability index of a GFP-peptide fusion (GPS, HEK-293T) (PSI 1-6); higher = more stable
Conditions: c terminus: a fixed tail appended
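Further: lentivirally expressed fusions sorted by FACS into six bins by GFP to DsRed ratio, PSI derived from sequencing read proportions per bin multiplied by bin number.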

Variant	protein stability index
YPHCEGISQQDPESDSQGQGNGLF [T5E]	4.49
YCHCTGISQQDPESDSQGQGNGLF [P2C]	2.45
YPHCTGISQQDPESDSQEQGNGLF [G18E]	4.19
YPHCTGISQQDPESDSQGDGNGLF [Q19D]	4.1
YKHCTGISQQDPESDSQGQGNGLF [P2K]	4.51
YPHCTGICQQDPESDSQGQGNGLF [S8C]	3.11
YPHCTGISQQDRESDSQGQGNGLF [P12R]	3.18

Variants of: B2
Assay: as above
Conditions: c terminus: a fixed tail appended

Variant	protein stability index
EPAGALRELGVWRSLLRLRATRAG [S5A]	2.31
EPAGSLRELGVWRSLIRLRATRAG [L16I]	2.36
EPAGSLRELGVWRSLLRLRETRAG [A20E]	3
EPAGSLRELGVWRGLLRLRATRAG [S14G]	1.42
EPAGSLRELGVWRSLLRLTATRAG [R19T]	2.91
EPAGSLRELGVWRSLLRLRATRWG [A23W]	2.28
EPAGSLRELGVARSLLRLRATRAG [W12A]	3.02
EPAGSLRELGVWHSLLRLRATRAG [R13H]	2.86
EPAGSLRELGVWRSLLRLRATRAF [G24F]	2.11
EPAGSCRELGVWRSLLRLRATRAG [L6C]	2.17
EPAGSLRELGVWRSLLLLRATRAG [R17L]	1.53
EPAGSLRELGVWRSLLRFRATRAG [L18F]	2.07
EPAGSLRELGVTRSLLRLRATRAG [W12T]	4.02
EPAGSLRELMVWRSLLRLRATRAG [G10M]	1.99
EPAGSLRTLGVWRSLLRLRATRAG [E8T]	2.1
EPLGSLRELGVWRSLLRLRATRAG [A3L]	1.59
EPAGSLRELGVWRSLLRLRATRAW [G24W]	3.29
EPAGSLRILGVWRSLLRLRATRAG [E8I]	1.57
EPAGSLRELGVWRLLLRLRATRAG [S14L]	1.33
EPADSLRELGVWRSLLRLRATRAG [G4D]	3.19
EPAGSLRDLGVWRSLLRLRATRAG [E8D]	3.43
ERAGSLRELGVWRSLLRLRATRAG [P2R]	2.41

Variant	protein stability index
EPAGSLRELGVMRSLLRLRATRAG [W12M]	2.42
EPAGSLREWGVWRSLLRLRATRAG [L9W]	2.37
EPAGSLRELGVWRSLLFLRATRAG [R17F]	1.95
EEAGSLRELGVWRSLLRLRATRAG [P2E]	2.5
EPAGSLRFLGVWRSLLRLRATRAG [E8F]	2.9
EPAGSLRELGRWRSLLRLRATRAG [V11R]	2.25
EPAGSLRELGVWRSLPRLRATRAG [L16P]	4.09
EPAGSLRELGVWRSKLRLRATRAG [L15K]	2.96
TPAGSLRELGVWRSLLRLRATRAG [E1T]	1.84
EPAGSLRELGVQRSLLRLRATRAG [W12Q]	3.87
EPAGSLRELGVWRSLLRLRATKAG [R22K]	2.66
EPAGSLRELGVWRWLLRLRATRAG [S14W]	2.5
EPAGSLREIGVWRSLLRLRATRAG [L9I]	1.71
EPAGSLRELGVWRSLLRPRATRAG [L18P]	3.97
EPAGSLRELGVWRSLKRLRATRAG [L16K]	3.56
EHAGSLRELGVWRSLLRLRATRAG [P2H]	1.42
MPAGSLRELGVWRSLLRLRATRAG [E1M]	1.91
EPAGSLRELGVWRSLLWLRATRAG [R17W]	1.6
EPAGSLRELGVWRSLLRLWATRAG [R19W]	2.22
EPAGSLRELGVWRSLLRLRDTRAG [A20D]	3.34
EPAGSLRELGVWRSLLRLRAYRAG [T21Y]	2.42
EPAGSLWELGVWRSLLRLRATRAG [R7W]	1.75

Variant	protein stability index
EPAGSSRELGVWRSLLRLRATRAG [L6S]	2.95
EPKGSLRELGVWRSLLRLRATRAG [A3K]	2.04
EPAGSLMELGVWRSLLRLRATRAG [R7M]	2.92
EPFGSLRELGVWRSLLRLRATRAG [A3F]	1.47
EPAGSLRELGVWRSLLRLRATRMG [A23M]	1.62
EPAGSLRELWVWRSLLRLRATRAG [G10W]	1.67
EPAGSLRELGVWRSLLRLLATRAG [R19L]	2.95
EPAGSLRELGVWRSLLRSRATRAG [L18S]	3.53
EPAGSLRELTVWRSLLRLRATRAG [G10T]	2.9
EPASSLRELGVWRSLLRLRATRAG [G4S]	2.4
EPAGSLRELGVWRSLLRLRAWRAG [T21W]	1.31
EPAGSLREEGVWRSLLRLRATRAG [L9E]	3.3
EPAGSLRELGLWRSLLRLRATRAG [V11L]	2.17
EPAGSLRELGVWYSLLRLRATRAG [R13Y]	1.91
EPAGVLRELGVWRSLLRLRATRAG [S5V]	2.04
EPAGSLRELGVWRSLLRDRATRAG [L18D]	2.64
EPAGSLRELGVWRSLLRLVATRAG [R19V]	2.31
EPAGSLPELGVWRSLLRLRATRAG [R7P]	3.35
EPAGSLRELGVWRSLLRLRATGAG [R22G]	2.36
EPAGSLRELGVWRSLLRLYATRAG [R19Y]	1.48
EPAGSLFELGVWRSLLRLRATRAG [R7F]	1.14
EPAGSLEELGVWRSLLRLRATRAG [R7E]	2.29

Variant	protein stability index
EPAGSLRELGVWRSLLRARATRAG [L18A]	3.73
EPAGSLRELIVWRSLLRLRATRAG [G10I]	1.86
PPAGSLRELGVWRSLLRLRATRAG [E1P]	2.25
EPAGSLLELGVWRSLLRLRATRAG [R7L]	2.44
EPAGSLRELGVWRSLLRLRATRTG [A23T]	2.29
EPPGSLRELGVWRSLLRLRATRAG [A3P]	1.63
EPAGSLRELGVWRSLLRLRPTRAG [A20P]	3.18
EPAGSLRELGVWRSLLELRATRAG [R17E]	3.13
EPAGSLRELGVWRSLLRLRATRAD [G24D]	2.66
EPAGSLRELGVWRSTLRLRATRAG [L15T]	2.5
EPAGSLRELGVWRFLLRLRATRAG [S14F]	2.14
EPAGSLRELGVPRSLLRLRATRAG [W12P]	3.7
EPAGSLRELGVWRSLLRLRATRRG [A23R]	3.33
EPAGSLRELGVWRSLRRLRATRAG [L16R]	2.57
EPAGSLRELGVWRSLLRLRAVRAG [T21V]	1.7
EPAGSLRELGVWRSLLRLMATRAG [R19M]	2.2
EPAGCLRELGVWRSLLRLRATRAG [S5C]	2.36
EPAGSLIELGVWRSLLRLRATRAG [R7I]	1.64
EPAGSLRELGVWRSLLCLRATRAG [R17C]	2.15
ENAGSLRELGVWRSLLRLRATRAG [P2N]	1.5
EGAGSLRELGVWRSLLRLRATRAG [P2G]	1.1
